Reference: patent US20180273613A1 (SAMSUNG ELECTRONICS, published 2018)

Assays:
[1] = molecular target: T1, recombinant hAng2 (C-His, R&D Systems) (human, UniProt O15123 19-496); assay: SPR, BIAcore T100; hAng2 (C-His) captured on anti-His CM5 chip, antibody flowed
T1 construct: Bought protein (R&D Systems), captured on an anti-His chip in SPR; also called human Ang2 protein; Angiopoietin-2; not shown: C-terminal His tag
T1 sequence: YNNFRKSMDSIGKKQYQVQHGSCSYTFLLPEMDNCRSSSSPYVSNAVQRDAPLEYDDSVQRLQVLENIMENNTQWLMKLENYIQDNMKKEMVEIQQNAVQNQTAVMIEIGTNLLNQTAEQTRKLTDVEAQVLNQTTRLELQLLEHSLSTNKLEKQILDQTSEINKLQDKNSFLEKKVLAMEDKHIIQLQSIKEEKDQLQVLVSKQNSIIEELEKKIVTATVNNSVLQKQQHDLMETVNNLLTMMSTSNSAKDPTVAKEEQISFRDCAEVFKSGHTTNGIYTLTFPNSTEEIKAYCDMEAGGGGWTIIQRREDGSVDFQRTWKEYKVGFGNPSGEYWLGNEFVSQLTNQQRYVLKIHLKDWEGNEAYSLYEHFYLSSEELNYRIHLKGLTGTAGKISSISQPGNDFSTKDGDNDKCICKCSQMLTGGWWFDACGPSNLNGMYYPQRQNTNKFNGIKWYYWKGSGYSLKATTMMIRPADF
Experimental: The binding affinity (KD values) of the antibodies to human Ang2 protein was measured by an SPR method using a BIAcore T100 (GE Healthcare). 25 μg/ml anti-His antibody was immobilized on a CM5 sensor chip (GE healthcare) using a pH 5.0 acetate solution and an amine coupling kit (GE Healthcare). 6 μg/ml of a recombinant hAng2 (C-His, R&D Systems) protein was flowed onto the chip to be captured at 100 to 200 RU levels.

[2] = molecular target: T2, hTie2-Fc (R&D Systems) (human, UniProt Q02763 23-745); assay: Complex ELISA: Tie2-Fc coated (4 µg/ml), 10D6 2 µg/ml without Ang2, anti-mouse IgG-HRP, OD450
T2 construct: Bought fusion protein, coated on the plate at 4 ug/ml; also called hTie-2/Fc fusion protein; not shown: Fc of human IgG1
Experimental: (§1) A 96-well MaxiSorp™ flat-bottom plate (Nunc) was coated with 4 μg/ml of Tie2-Fc (R&D systems) or BSA (Sigma). Then, the plate was washed five times with 0.05% (v/v) Tween-20-containing PBS (Phosphate Buffer Saline) and blocked with 1% (v/v) BSA (Bovine serum albumin; Sigma)-containing PBS at a room temperature for 2 hours. 0.25 μg/ml of Ang2 and 2 μg/ml of 10D6 antibody were added to each well of the plate, which was allowed to react at a room temperature for 2 hours and then washed five times with PBST. After that, an anti-mouse IgG antibody (Sigma) conjugated with HRP diluted in 1% (v/v) BSA-containing PBS at a ratio of 1:5,000 (v/v) was added in an amount of 100 μl to each well to react at a room temperature for 1 hour and then, the plate was washed five times with PBST. Lastly, 100 μl (microliter) of TMB substrate (Cell Signaling) was added to each well of the plate to induce color development for 3 min. and then, the reaction was ceased by the addition of 100 μl of Stop solution (Cell Signaling) and OD450 values were measured on a plate reader (Molecular Devices).

[3] = molecular target: T3, BSA (bovine, UniProt P02769); assay: Complex ELISA: BSA coated (4 µg/ml), 10D6 2 µg/ml, anti-mouse IgG-HRP, OD450
T3 construct: commercial preparation, not further described; also called Bovine serum albumin; BSA (Sigma)
Experimental: as §1

[4] = molecular target: T3, BSA; assay: Complex ELISA: BSA coated (4 µg/ml), FLAG-Ang2 0.25 µg/ml and 10D6 2 µg/ml, Ang2 on the plate shown indirectly by bound 10D6 (anti-mouse IgG-HRP, OD450)
Experimental: as §1

T3 sequence (P02769 25-607 limits assumed): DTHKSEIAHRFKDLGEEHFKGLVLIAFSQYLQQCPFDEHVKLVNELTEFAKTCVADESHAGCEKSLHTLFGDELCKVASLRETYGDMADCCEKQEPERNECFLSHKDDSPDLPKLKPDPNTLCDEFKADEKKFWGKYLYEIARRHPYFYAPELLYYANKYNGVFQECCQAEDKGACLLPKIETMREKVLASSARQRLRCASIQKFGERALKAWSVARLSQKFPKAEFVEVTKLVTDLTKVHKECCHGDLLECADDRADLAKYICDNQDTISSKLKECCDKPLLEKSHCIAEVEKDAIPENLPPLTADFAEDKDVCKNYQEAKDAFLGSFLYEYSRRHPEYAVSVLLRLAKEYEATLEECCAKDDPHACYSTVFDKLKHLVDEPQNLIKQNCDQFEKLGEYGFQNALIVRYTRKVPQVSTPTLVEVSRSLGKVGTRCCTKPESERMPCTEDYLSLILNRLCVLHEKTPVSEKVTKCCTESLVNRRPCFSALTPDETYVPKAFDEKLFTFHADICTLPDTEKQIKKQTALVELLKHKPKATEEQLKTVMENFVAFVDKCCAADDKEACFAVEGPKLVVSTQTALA
T2 sequence (Q02763 23-745 limits assumed): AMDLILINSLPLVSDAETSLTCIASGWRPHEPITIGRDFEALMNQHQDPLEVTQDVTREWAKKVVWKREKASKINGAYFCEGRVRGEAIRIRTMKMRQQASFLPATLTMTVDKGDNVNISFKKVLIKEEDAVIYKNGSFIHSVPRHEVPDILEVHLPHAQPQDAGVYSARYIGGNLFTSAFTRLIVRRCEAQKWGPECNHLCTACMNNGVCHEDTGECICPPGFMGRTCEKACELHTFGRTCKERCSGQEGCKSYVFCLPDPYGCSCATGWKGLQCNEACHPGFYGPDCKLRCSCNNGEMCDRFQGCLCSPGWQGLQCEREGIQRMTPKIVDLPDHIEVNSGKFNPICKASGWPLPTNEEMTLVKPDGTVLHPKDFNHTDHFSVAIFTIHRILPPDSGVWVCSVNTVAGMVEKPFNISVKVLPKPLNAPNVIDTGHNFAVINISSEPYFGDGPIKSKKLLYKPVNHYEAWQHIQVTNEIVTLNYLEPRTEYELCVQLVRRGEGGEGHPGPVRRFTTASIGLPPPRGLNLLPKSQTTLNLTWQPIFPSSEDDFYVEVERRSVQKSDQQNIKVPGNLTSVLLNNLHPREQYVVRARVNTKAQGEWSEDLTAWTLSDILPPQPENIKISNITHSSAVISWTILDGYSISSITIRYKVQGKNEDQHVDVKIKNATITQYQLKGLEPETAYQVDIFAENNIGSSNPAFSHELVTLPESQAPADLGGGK

B1: h10D6-OPTI-65 (antibody, V domains shown)
VH: QVQLQESGPGLVKPSETLSLTCAVSGYSITSDYAWNWIRQPPGKGLEWMGKISYSGKTDYNPSLKSRSTISRDTSKNQFSLKLSSVTAADTAVYYCARGNFEGAMDYWGQGTLVTVSS
VL: DIQMTQSPSSLSASVGDRVTITCKASQSVSNDVAWYQQKPGKAPKLLIYYASIPYPGVPSRFSGSGSGTDFTLTISSLQPEDFATYYCQQDYSSPWTFGQGTKLEIK
notes: also called HU2-6.6 / 10D6_VL-Hu1-2.4
How did the Kd [1] turn out when B1 was run?
Its Kd is 0.0454 nM.

What about the kon [1] of the same binder?
Its kon is 496000 M⁻¹ s⁻¹.

B2: SAIT-ANG2-AB-m10D6 (antibody, V domains shown)
VH: DVQLQESGPDLVKPSQSLSLTCTVTGYSITSDYAWNWIRQFPGNKLEWMGYINYSGNTDYNPSLKSRSSITRDTSKNQFFLQLNSVTTGDTATYYCARGNFEGAMDYWGQGTSVTVSS
VL: SIVMTQTPKFLLVSAGDRVTITCKASQSVSNDVAWYQQKPGQSPKLLIYYASNRYPGVPDRFTGSGYGTDFTFTISTVQAEDLAVYFCQQDYSSPWTFGGGTKLEIK
notes: Mouse monoclonal antibody from hybridoma KCLRF-BP-00295, purified on Protein G and detected with anti-mouse IgG; the mouse constant regions are not; also called mouse antibody 10D6; mouse anti-Ang2 antibody 10D6
Does B2 bind [2]?
Result: no binding (tested: 2 µg/ml)

Does B2 bind [3]?
Result: no binding (tested: 2 µg/ml)

B3: FLAG-tagged hAng2 (ligand)
chain: YNNFRKSMDSIGKKQYQVQHGSCSYTFLLPEMDNCRSSSSPYVSNAVQRDAPLEYDDSVQRLQVLENIMENNTQWLMKLENYIQDNMKKEMVEIQQNAVQNQTAVMIEIGTNLLNQTAEQTRKLTDVEAQVLNQTTRLELQLLEHSLSTNKLEKQILDQTSEINKLQDKNSFLEKKVLAMEDKHIIQLQSIKEEKDQLQVLVSKQNSIIEELEKKIVTATVNNSVLQKQQHDLMETVNNLLTMMSTSNSAKDPTVAKEEQISFRDCAEVFKSGHTTNGIYTLTFPNSTEEIKAYCDMEAGGGGWTIIQRREDGSVDFQRTWKEYKVGFGNPSGEYWLGNEFVSQLTNQQRYVLKIHLKDWEGNEAYSLYEHFYLSSEELNYRIHLKGLTGTAGKISSISQPGNDFSTKDGDNDKCICKCSQMLTGGWWFDACGPSNLNGMYYPQRQNTNKFNGIKWYYWKGSGYSLKATTMMIRPADF
notes: not shown: FLAG tag
Does B3 bind [4]?
Result: no binding (tested: 0.25 µg/ml)
